In PMC6170606, “Biological and Biochemical Roles of Two Distinct Cyclic Dimeric Adenosine 3′,5′-Monophosphate- Associated Phosphodiesterases in Streptococcus mutans” (Frontiers in Microbiology, 2018):

Tests used:
[1] = system: Nc1ncnc2c1ncn2[C@@H]1O[C@H](COP(=O)(O)O[C@H]2[C@@H](O)[C@H](n3cnc4c(N)ncnc43)O[C@@H]2COP(=O)(O)O)[C@@H](O)[C@H]1O; assay: initial rate, LC quantification of end product AMP (A254); assay type: biochemical, Streptococcus mutans; conditions: 50 mM potassium phosphate pH 7.0, 1 mM MnCl2, 0-0.3 mM substrate
Text: initial rate, LC quantification of end product AMP (A254) on rDhhP-ProS2 (recombinant DhhP, SMU_1297)

[2] = system: [H][C@@]1(O)[C@]2([H])OP(=O)(O)OC[C@@]3([H])O[C@@]([H])(n4cnc5c(N)ncnc54)[C@]([H])(O)[C@]3([H])OP(=O)(O)OC[C@@]2([H])O[C@@]1([H])n1cnc2c(N)ncnc21; assay: purified protein; conditions: 50 mM potassium phosphate pH 5.0, 1 mM MnCl2, 0-0.3 mM substrate
Text: initial rate, LC quantification of end product pApA (A254) on rGdpP109-657-ProS2 (truncated recombinant GdpP, SMU_2140c)

For “rDhhP-ProS2 (recombinant DhhP, SMU_1297) (Streptococcus mutans UA159)”, the Km [1] was 199 ± 65.4 µM, the Vmax [1] was 32.1 µmol/min/mg and the kcat [1] was 36.5 ± 8.08 s⁻¹.
For “rGdpP109-657-ProS2 (truncated recombinant GdpP, SMU_2140c) (Streptococcus mutans UA159)”, the Km [2] was 89.7 ± 7.29 µM, the Vmax [2] was 4.58 µmol/min/mg and the kcat [2] was 4.02 ± 0.2 s⁻¹.
